Measurements: patent publication US20140134690A1, “MICROBES AND METHODS FOR PRODUCING 1-PROPANOL” (University of Georgia Research Foundation, Inc., priority 2012, published 2014)

Tests used:
Test in all cases: cells, lysate or membranes named
O=C(CO)COP(=O)(O)O [1] = assay type: biochemical, C. difficile; conditions: other: substrate dihydroxyacetone phosphate 0.15-1.5 mM, crude extract, imidazole-HCl pH 7.0, 30° C.
From the text: (§1) 1,2-Propanediol pathway branches from glycolysis and competes for the intermediate dihydroxyacetone phosphate, with the glycolytic pathway. […] We amplified the mgsA genes from the microorganisms: C. acetobutylicum (ATCC#824), B. subtilis 168, C. difficile R20291, E. coli MG1655, T. thermophilus HB27, K. pneumoniae MGH78578, P. fluorescens Pf-5, and R. eutropha H16 respectively. These genes were cloned and expressed in wild type E. coli BW25113 using eight plasmids pRJ1-pRJ8. Each gene was under the control of the IPTG-inducible pLlacO1 promoter. Using dihydroxyacetone-phosphate as the substrate, we successfully detected the functional expression of all mgsA genes in vitro, where the specific activities varied from 0.0052 U/mg to 0.1242 U/mg (Table 1). […] Without the over-expression of mgsA gene, we also detected the native expression of E. coli mgsA, which gave a specific activity of only 0.0008 U/mg, much lower than that of any over-expression.
(§2) Using the primers listed in Table 5, the mgsA genes were PCR amplified from the genomic DNA of C. acetobutylicum (ATCC824), B. subtilis 168, Clostridium difficile R20291, E. coli MG1655, Thermus thermophilus HB27, K. pneumoniae MGH78578, Pseudomonas fluorescens Pf-5, and Ralstonia eutropha H16 respectively. […]
(§3) The assay was carried out using a two-step procedure. […] The samples were diluted 10 times before measuring the absorbance at 550 nm.

O=C(CO)COP(=O)(O)O [2] = assay type: biochemical, E. coli; conditions: other: substrate dihydroxyacetone phosphate 0.15-1.5 mM, crude extract, imidazole-HCl pH 7.0, 30° C.
From the text: as §1, §2, §3

CC(=O)C=O = conditions: other: methylglyoxal 20-120 mM, 0.25 mM NADH, crude extract, imidazole-HCl pH 7.0, 37° C.
CC(=O)CO = conditions: other: hydroxyacetone 20-120 mM, 0.25 mM NADH, crude extract, imidazole-HCl pH 7.0, 37° C.
O=C(CO)COP(=O)(O)O [3] = assay type: biochemical, K. pneumoniae; conditions: other: substrate dihydroxyacetone phosphate 0.15-1.5 mM, crude extract, imidazole-HCl pH 7.0, 30° C.
From the text: as §1, §2, §3

**Q.** With “Clostridium difficile R20291 methylglyoxal synthase (mgsA), wild type (Clostridioides difficile R20291)” as the substance, how does the Km (O=C(CO)COP(=O)(O)O [1]) read?
**A.** 1439 ± 60 µM

**Q.** How did the Km (O=C(CO)COP(=O)(O)O [2]) turn out when “E. coli MG1655 methylglyoxal synthase (mgsA), wild type (Escherichia coli K-12)” was run?
**A.** 1418 ± 120 µM

**Q.** With “K. pneumoniae MGH78578 diol dehydrogenase (budC), wild type (Klebsiella pneumoniae subsp. pneumoniae MGH 78578)” as the substance, how does the Km (CC(=O)C=O) read?
**A.** 780 ± 30 µM

**Q.** What about the Km (CC(=O)CO) of the same substance?
**A.** 1830 ± 630 µM

**Q.** For “Klebsiella pneumoniae MGH78578 methylglyoxal synthase (mgsA), wild type (Klebsiella pneumoniae subsp. pneumoniae MGH 78578)”, which Km (O=C(CO)COP(=O)(O)O [3]) is on record?
**A.** 2820 ± 300 µM
